The values that follow come from patent publication US20090099029A1, “Methods and substrates for conducting assays” (Invitrogen Corporation, priority 2005, published 2009).

To fix the notation:
B1: FER (protein)
chain: KSGVVLLNPIPKDKKWILSHEDVILGELLGKGNFGEVYKGTLKDKTSVAVKTCKEDLPQELKIKFLQEAKILKQYDHPNIVKLIGVCTQRQPVYIIMELVSGGDFLTFLRRKKDELKLKQLVKFSLDAAAGMLYLESKNCIHRDLAARNCLVGENNVLKISDFGMSRQEDGGVYSSSGLKQIPIKWTAPEALNYGRYSSESDVWSFGILLWETFSLGVCPYPGMTNQQAREQVERGYRMSAPQHCPEDISKIMMKCWDYKPENRPKFSELQKELTIIKRKLT
modifications: left off: a dimerising Fc or GST
B2: ROS1 (protein)
chain: HRRLKNQKSAKEGVTVLINEDKELAELRGLAAGVGLANACYAIHTLPTQEEIENLPAFPREKLTLRLLLGSGAFGEVYEGTAVDILGVGSGEIKVAVKTLKKGSTDQEKIEFLKEAHLMSKFNHPNILKQLGVCLLNEPQYIILELMEGGDLLTYLRKARMATFYGPLLTLVDLVDLCVDISKGCVYLERMHFIHRDLAARNCLVSVKDYTSPRIVKIGDFGLARDIYKNDYYRKRGEGLLPVRWMAPESLMDGIFTTQSDVWSFGILIWEILTLGHQPYPAHSNLDVLNYVQTGGRLEPPRNCPDDLWNLMTQCWAQEPDQRPTFHRIQDQLQLFRNFFLNSIYKSRDEANNSGVINESFEGEDGDVICLNSDDIMPVALMETKNREGLNYMVLATECGQGEEKSEGPLGSQESESCGLRKEEKEPHADKDFCQEKQVAYCPSGKPEGLNYACLTHSGYGDGSD
modifications: left off: a dimerising Fc or GST
B3: RET (protein)
chain: HCYHKFAHKPPISSAEMTFRRPAQAFPVSYSSSGARRPSLDSMENQVSVDAFKILEDPKWEFPRKNLVLGKTLGEGEFGKVVKATAFHLKGRAGYTTVAVKMLKENASPSELRDLLSEFNVLKQVNHPHVIKLYGACSQDGPLLLIVEYAKYGSLRGFLRESRKVGPGYLGSGGSRNSSSLDHPDERALTMGDLISFAWQISQGMQYLAEMKLVHRDLAARNILVAEGRKMKISDFGLSRDVYEEDSYVKRSQGRIPVKWMAIESLFDHIYTTQSDVWSFGVLLWEIVTLGGNPYPGIPPERLFNLLKTGHRMERPDNCSEEMYRLMLQCWKQEPDKRPVFADISKDLEKMMVKRRDYLDLAASTPSDSLIYDDGLSEEETPLVDCNNAPLPRALPSTWIENKLYGMSDPNWPGESPVPLTRADGTNTGFPRYPNDSVYANWMLSPSAAKLMDTFDS
modifications: left off: a dimerising Fc or GST
B4: BMX (protein)
chain: MDTKSILEELLLKRSQQKKKMSPNNYKERLFVLTKTNLSYYEYDKMKRGSRKGSIEIKKIRCVEKVNLEEQTPVERQYPFQIVYKDGLLYVYASNEESRSQWLKALQKEIRGNPHLLVKYHSGFFVDGKFLCCQQSCKAAPGCTLWEAYANLHTAVNEEKHRVPTFPDRVLKIPRAVPVLKMDAPSSSTTLAQYDNESKKNYGSQPPSSSTSLAQYDSNSKKIYGSQPNFNMQYIPREDFPDWWQVRKLKSSSSSEDVASSNQKERNVNHTTSKISWEFPESSSSEEEENLDDYDWFAGNISRSQSEQLLRQKGKEGAFMVRNSSQVGMYTVSLFSKAVNDKKGTVKHYHVHTNAENKLYLAENYCFDSIPKLIHYHQHNSAGMITRLRHPVSTKANKVPDSVSLGNGIWELKREEITLLKELGSGQFGVVQLGKWKGQYDVAVKMIKEGSMSEDEFFQEAQTMMKLSHPKLVKFYGVCSKEYPIYIVTEYISNGCLLNYLRSHGKGLEPSQLLEMCYDVCEGMAFLESHQFIHRDLAARNCLVDRDLCVKVSDFGMTRYVLDDQYVSSVGTKFPVKWSAPEVFHYFKYSSKSDVWAFGILMWEVFSLGKQPYDLYDNSQVVLKVSQGHRLYRPHLASDTIYQIMYSCWHELPEKRPTFQQLLSSIEPLREKDKH
modifications: left off: small tags and cut ends
B5: TYRO3 (protein)
chain: LRKRRKETRFGQAFDSVMARGEPAVHFRAARSFNRERPERIEATLDSLGISDELKEKLEDVLIPEQQFTLGRMLGKGEFGSVREAQLKQEDGSFVKVAVKMLKADIIASSDIEEFLREAACMKEFDHPHVAKLVGVSLRSRAKGRLPIPMVILPFMKHGDLHAFLLASRIGENPFNLPLQTLIRFMVDIACGMEYLSSRNFIHRDLAARNCMLAEDMTVCVADFGLSRKIYSGDYYRQGCASKLPVKWLALESLADNLYTVQSDVWAFGVTMWEIMTRGQTPYAGIENAEIYNYLIGGNRLKQPPECMEDVYDLMYQCWSADPKQRPSFTCLRMELENILGQLSVLSASQDPLYINIERAEEPTAGGSLELPGRDQPYSGAGDGSGMGAVGGTPSDCRYILTPGGLAEQPGQAEHQPESPLNETQRLLLLQQGLLPHSSC
modifications: left off: a dimerising Fc or GST
B6: FES (protein)
chain: MGFSSELCSPQGHGVLQQMQEAELRLLEGMRKWMAQRVKSDREYAGLLHHMSLQDSGGQSRAISPDSPISQSWAEITSQTEGLSRLLRQHAEDLNSGPLSKLSLLIRERQQLRKTYSEQWQQLQQELTKTHSQDIEKLKSQYRALARDSAQAKRKYQEASKDKDRDKAKDKYVRSLWKLFAHHNRYVLGVRAAQLHHQHHHQLLLPGLLRSLQDLHEEMACILKEILQEYLEISSLVQDEVVAIHREMAAAAARIQPEAEYQGFLRQYGSAPDVPPCVTFDESLLEEGEPLEPGELQLNELTVESVQHTLTSVTDELAVATEMVFRRQEMVTQLQQELRNEEENTHPRERVQLLGKRQVLQEALQGLQVALCSQAKLQAQQELLQTKLEHLGPGEPPPVLLLQDDRHSTSSSEQEREGGRTPTLEILKSHISGIFRPKFSLPPPLQLIPEVQKPLHEQLWYHGAIPRAEVAELLVHSGDFLVRESQGKQEYVLSVLWDGLPRHFIIQSLDNLYRLEGEGFPSIPLLIDHLLSTQQPLTKKSGVVLHRAVPKDKWVLNHEDLVLGEQIGRGNFGEVFSGRLRADNTLVAVKSCRETLPPDLKAKFLQEARILKQYSHPNIVRLIGVCTQKQPIYIVMELVQGGDFLTFLRTEGARLRVKTLLQMVGDAAAGMEYLESKCCIHRDLAARNCLVTEKNVLKISDFGMSREEADGVYAASGGLRQVPVKWTAPEALNYGRYSSESDVWSFGILLWETFSLGASPYPNLSNQQTREFVEKGGRLPCPELCPDAVFRLMEQCWAYEPGQRPSFSTIYQELQSIRKRHR
modifications: left off: small tags and cut ends
B7: BTK (protein)
chain: MAAVILESIFLKRSQQKKKTSPLNFKKRLFLLTVHKLSYYEYDFERGRRGSKKGSIDVEKITCVETVVPEKNPPPERQIPRRGEESSEMEQISIIERFPYPFQVVYDEGPLYVFSPTEELRKRWIHQLKNVIRYNSDLVQKYHPCFWIDGQYLCCSQTAKNAMGCQILENRNGSLKPGSSHRKTKKPLPPTPEEDQILKKPLPPEPAAAPVSTSELKKVVALYDYMPMNANDLQLRKGDEYFILEESNLPWWRARDKNGQEGYIPSNYVTEAEDSIEMYEWYSKHMTRSQAEQLLKQEGKEGGFIVRDSSKAGKYTVSVFAKSTGDPQGVIRHYVVCSTPQSQYYLAEKHLFSTIPELINYHQHNSAGLISRLKYPVSQQNKNAPSTAGLGYGSWEIDPKDLTFLKELGTGQFGVVKYGKWRGQYDVAIKMIKEGSMSEDEFIEEAKVMMNLSHEKLVQLYGVCTKQRPIFIITEYMANGCLLNYLREMRHRFQTQQLLEMCKDVCEAMEYLESKQFLHRDLAARNCLVNDQGVVKVSDFGLSRYVLDDEYTSSVGSKFPVRWSPPEVLMYSKFSSKSDIWAFGVLMWEIYSLGKMPYERFTNSETAEHIAQGLRLYRPHLASEKVYTIMYSCWHEKADERPTFKILLSNILDVMDEES
modifications: left off: small tags and cut ends
B8: CSK (protein)
chain: MSAIQAAWPSGTECIAKYNFHGTAEQDLPFCKGDVLTIVAVTKDPNWYKAKNKVGREGIIPANYVQKREGVKAGTKLSLMPWFHGKITREQAERLLYPPETGLFLVRESTNYPGDYTLCVSCDGKVEHYRIMYHASKLSIDEEVYFENLMQLVEHYTSDADGLCTRLIKPKVMEGTVAAQDEFYRSGWALNMKELKLLQTIGKGEFGDVMLGDYRGNKVAVKCIKNDATAQAFLAEASVMTQLRHSNLVQLLGVIVEEKGGLYIVTEYMAKGSLVDYLRSRGRSVLGGDCLLKFSLDVCEAMEYLEGNNFVHRDLAARNVLVSEDNVAKVSDFGLTKEASSTQDTGKLPVKWTAPEALREKKFSTKSDVWSFGILLWEIYSFGRVPYPRIPLKDVVPRVEKGYKMDAPDGCPPAVYEVMKNCWHLDAAMRPSFLQLREQLEHIKTHELHL
modifications: left off: small tags and cut ends
B9: ABL2(ARG) (protein)
chain: MGQQVGRVGEAPGLQQPQPRGIRGSSAARPSGRRRDPAGRTTETGFNIFTQHDHFASCVEDGFEGDKTGGSSPEALHRPYGCDVEPQALNEAIRWSSKENLLGATESDPNLFVALYDFVASGDNTLSITKGEKLRVLGYNQNGEWSEVRSKNGQGWVPSNYITPVNSLEKHSWYHGPVSRSAAEYLLSSLINGSFLVRESESSPGQLSISLRYEGRVYHYRINTTADGKVYVTAESRFSTLAELVHHHSTVADGLVTTLHYPAPKCNKPTVYGVSPIHDKWEMERTDITMKHKLGGGQYGEVYVGVWKKYSLTVAVKTLKEDTMEVEEFLKEAAVMKEIKHPNLVQLLGVCTLEPPFYIVTEYMPYGNLLDYLRECNREEVTAVVLLYMATQISSAMEYLEKKNFIHRDLAARNCLVGENHVVKVADFGLSRLMTGDTYTAHAGAKFPIKWTAPESLAYNTFSIKSDVWAFGVLLWEIATYGMSPYPGIDLSQVYDLLEKGYRMEQPEGCPPKVYELMRACWKWSPADRPSFAETHQAFETMFHDSSISEEVAEELGRAASSSSVVPYLPRLPILPSKTRTLKKQVENKENIEGAQDATENSASSLAPGFIRGAQASSGSPALPRKQRDKSPSSLLEDAKETCFTRDRKGGFFSSFMKKRNAPTPPKRSSSFREMENQPHKKYELTGNFSSVASLQHADGFSFTPAQQEANLVPPKCYGGSFAQRNLCNDDGGGGGGSGTAGGGWSGITGFFTPRLIKKTLGLRAGKPTASDDTSKPFPRSNSTSSMSSGLPEQDRMAMTLPRNCQRSKLQLERTVSTSSQPEENVDRANDMLPKKSEESAAPSRERPKAKLLPRGATALPLRTPSGDLAITEKDPPGVGVAGVAAAPKGKEKNGGARLGMAGVPEDGEQPGWPSPAKAAPVLPTTHNHKVPVLISPTLKHTPADVQLIGTDSQGNKFKLLSEHQVTSSGDKDRPRRVKPKCAPPPPPVMRLLQHPSICSDPTEEPTALTAGQSTSETQEGGKKAALGAVPISGKAGRPVMPPPQVPLPTSSISPAKMANGTAGTKVALRKTKQAAEKISADKISKEALLECADLLSSALTEPVPNSQLVDTGHQLLDYCSGYVDCIPQTRNKFAFREAVSKLELSLQELQVSSAAAGVPGTNPVLNNLLSCVQEISDVVQR
modifications: left off: small tags and cut ends

The data set concerns kinases of Table 6 on Myelin Basic Protein (MBP). Put plainly: Kinase assay using MBP substrate, ProQ Diamond stain (Table 6). The conditions noted are these: kinase printed on MBP-coated slide; 20 uM ATP, 30° C.; ProQ Diamond Microarray Stain; graded Strong/Weak/Negative. The format is biochemical. The procedure, abridged: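 Reactions ran at 30° C. with 20 uM ATP, 4 mM MgCl2 and 5% DMSO in HEPES pH 7.5, inhibitor added or omitted. Kinases had been arrayed onto slide-bound dephosphorylated bovine MBP; phospho-signal read after ProQ Diamond staining.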
Consider B1, for which the “MBP Kinase Activity” value is recorded as “Negative”.

Turning to B2, the “MBP Kinase Activity” value was “Strong”.

On to B3, for which the “MBP Kinase Activity” value is “Strong”.

Turning to B4, the “MBP Kinase Activity” value is given as “Strong”.

In the case of B5, the “MBP Kinase Activity” value is reported as “Strong”.

In the case of B6, the “MBP Kinase Activity” value was “Negative”.

Regarding B7, the “MBP Kinase Activity” value is on record as “Strong”.

As for B8, the “MBP Kinase Activity” value is listed as “Negative”.

On to B9, for which the “MBP Kinase Activity” value is “Weak”.
